The record followed here is article PMC6555848 (2019).

The target of experiment [1] is T1, His-tagged ABL1 kinase (UniProt P00519 1-1130). The experiment can be described thus: SPR; two-state model. (In general: Surface plasmon resonance follows binding to a sensor surface in real time, without labels.)
Experiment [2] concerns the target T1, His-tagged ABL1 kinase. The experiment in a line: SPR; two-state model, kd1.

For orientation: Kd means the concentration at which binding is half-saturated. A high value points to weaker binding. The term koff denotes a measure of how fast the partners let go of each other.

T1 sequence (P00519 whole entry): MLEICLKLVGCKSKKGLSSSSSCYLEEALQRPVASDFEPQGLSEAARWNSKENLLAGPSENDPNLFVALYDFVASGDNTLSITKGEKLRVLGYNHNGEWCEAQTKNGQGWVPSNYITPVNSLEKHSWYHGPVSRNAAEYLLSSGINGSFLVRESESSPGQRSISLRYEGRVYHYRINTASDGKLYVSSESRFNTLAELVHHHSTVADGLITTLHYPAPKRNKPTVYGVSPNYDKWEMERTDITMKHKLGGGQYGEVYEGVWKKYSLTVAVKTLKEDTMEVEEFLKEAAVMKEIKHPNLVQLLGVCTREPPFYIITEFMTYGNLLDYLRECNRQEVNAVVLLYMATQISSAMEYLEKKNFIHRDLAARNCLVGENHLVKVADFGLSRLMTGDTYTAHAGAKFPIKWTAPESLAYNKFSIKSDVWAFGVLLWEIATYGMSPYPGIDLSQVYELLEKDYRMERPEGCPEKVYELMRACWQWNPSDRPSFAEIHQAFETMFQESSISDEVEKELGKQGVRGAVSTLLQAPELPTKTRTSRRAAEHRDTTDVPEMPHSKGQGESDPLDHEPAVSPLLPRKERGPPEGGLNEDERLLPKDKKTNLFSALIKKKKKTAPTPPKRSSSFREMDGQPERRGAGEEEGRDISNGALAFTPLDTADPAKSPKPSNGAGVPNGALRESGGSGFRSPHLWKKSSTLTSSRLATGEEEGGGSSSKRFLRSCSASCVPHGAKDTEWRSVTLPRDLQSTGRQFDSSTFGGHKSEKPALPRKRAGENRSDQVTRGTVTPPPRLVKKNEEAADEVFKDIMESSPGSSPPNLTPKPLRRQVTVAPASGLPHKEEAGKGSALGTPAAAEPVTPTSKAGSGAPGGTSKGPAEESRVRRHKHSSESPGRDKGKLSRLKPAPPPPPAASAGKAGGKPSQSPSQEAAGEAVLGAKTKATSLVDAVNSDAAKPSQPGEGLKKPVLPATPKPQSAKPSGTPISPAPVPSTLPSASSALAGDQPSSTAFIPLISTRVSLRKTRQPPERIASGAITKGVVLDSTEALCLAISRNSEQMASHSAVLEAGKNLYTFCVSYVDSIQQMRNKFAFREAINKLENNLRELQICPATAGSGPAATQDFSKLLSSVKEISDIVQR

B1: full-length human STAT5B (M1-S787) (natural protein)
chain: MAVWIQAQQLQGEALHQMQALYGQHFPIEVRHYLSQWIESQAWDSVDLDNPQENIKATQLLEGLVQELQKKAEHQVGEDGFLLKIKLGHYATQLQNTYDRCPMELVRCIRHILYNEQRLVREANNGSSPAGSLADAMSQKHLQINQTFEELRLVTQDTENELKKLQQTQEYFIIQYQESLRIQAQFGPLAQLSPQERLSRETALQQKQVSLEAWLQREAQTLQQYRVELAEKHQKTLQLLRKQQTIILDDELIQWKRRQQLAGNGGPPEGSLDVLQSWCEKLAEIIWQNRQQIRRAEHLCQQLPIPGPVEEMLAEVNATITDIISALVTSTFIIEKQPPQVLKTQTKFAATVRLLVGGKLNVHMNPPQVKATIISEQQAKSLLKNENTRNDYSGEILNNCCVMEYHQATGTLSAHFRNMSLKRIKRSDRRGAESVTEEKFTILFESQFSVGGNELVFQVKTLSLPVVVIVHGSQDNNATATVLWDNAFAEPGRVPFAVPDKVLWPQLCEALNMKFKAEVQSNRGLTKENLVFLAQKLFNNSSSHLEDYSGLSVSWSQFNRENLPGRNYTFWQWFDGVMEVLKKHLKPHWNDGAILGFVNKQQAHDLLINKPDGTFLLRFSDSEIGGITIAWKFDSQERMFWNLMPFTTRDFSIRSLADRLGDLNYLIYVFPDRPKDEVYSKYYTPVPCESATAKAVDGYVKPQIKQVVPEFVNASADAGGGSATYMDQAPSPAVCPQAHYNMYPQNPDSVLDTDGDFDLEDTMDVARRVEELLGRPMDSQWIPHAQS
B1 had a Kd in experiment [1] of 280 nM. The off-rate constant (koff) in experiment [2] amounted to 93.9 s⁻¹.
